We go through seven molecules from article PMC8379338, “Structures of heat shock factor trimers bound to DNA” (iScience, 2021).

One data set concerns the target HSF1-DBD (Homo sapiens, UniProt Q00613 15-120). Briefly: X-ray crystallography; 2.0 A; Co-crystallization at 20 C, hanging drop; protein stock in 20 mM Tris pH 8.0, 150 mM NaCl, 1 mM DTT, 0.2 mM EDTA; DNA annealed in TE; protein:DNA 2:1.5 (2-site) or 3:1.2 (3-site); HSF2 3-site reservoir 0.1 M HEPES pH 7.5, 25% PEG. The following applies: protein: recombinant; tags: His6 (N-terminal, between MBP and DBD; MBP removed in vivo by TEV protease); chain copies: 2; blunt; self-complementary, 2 copies of the strand.

The target of data set [1] is T1, HSF1-DBD trimer (Homo sapiens, UniProt Q00613 15-120). The data set can be described thus: X-ray crystallography; 2.36 A; Co-crystallization at 20 C, hanging drop; protein stock in 20 mM Tris pH 8.0, 150 mM NaCl, 1 mM DTT, 0.2 mM EDTA; DNA annealed in TE; protein:DNA 2:1.5 (2-site) or 3:1.2 (3-site); HSF2 3-site reservoir 0.1 M HEPES pH 7.5, 25% PEG. The following applies: protein: recombinant; tags: His6 (N-terminal, between MBP and DBD; MBP removed in vivo by TEV protease); chain copies: 3; 23 bp, 5' overhang 1 nt on both strands.

Data set [2] has as its target T1, HSF1-DBD trimer. The data set can be described thus: X-ray crystallography; 2.4 A; Co-crystallization at 20 C, hanging drop; protein stock in 20 mM Tris pH 8.0, 150 mM NaCl, 1 mM DTT, 0.2 mM EDTA; DNA annealed in TE; protein:DNA 2:1.5 (2-site) or 3:1.2 (3-site); HSF2 3-site reservoir 0.1 M HEPES pH 7.5, 25% PEG. The settings on record: protein: recombinant; tags: His6 (N-terminal, between MBP and DBD; MBP removed in vivo by TEV protease); chain copies: 3; 22 bp, 5' overhang 1 nt on both strands.

Data set [3] deals with the molecule itself. Briefly: crystal structure; DBD co-crystallised with a sticky-ended three-site HSE DNA duplex (21 bp for HSF2; 23 bp and 24 bp for HSF1); protein:DNA molar ratio 3:1.2; hanging drop, 20°C; three DBD copies on one DNA duplex.
In another data set the target is HSF2-DBD (Homo sapiens, UniProt Q03933 7-112). Briefly: X-ray crystallography; 1.7 A; Co-crystallization at 20 C, hanging drop; protein stock in 20 mM Tris pH 8.0, 150 mM NaCl, 1 mM DTT, 0.2 mM EDTA; DNA annealed in TE; protein:DNA 2:1.5 (2-site) or 3:1.2 (3-site); HSF2 3-site reservoir 0.1 M HEPES pH 7.5, 25% PEG. The settings on record: protein: recombinant; tags: His6 (N-terminal, between MBP and DBD; MBP removed in vivo by TEV protease); chain copies: 2; blunt; self-complementary, 2 copies of the strand.

In a further data set the target is HSF2-DBD trimer (Homo sapiens, UniProt Q03933 7-112). The data set can be described thus: X-ray crystallography; 1.75 A; Co-crystallization at 20 C, hanging drop; protein stock in 20 mM Tris pH 8.0, 150 mM NaCl, 1 mM DTT, 0.2 mM EDTA; DNA annealed in TE; protein:DNA 2:1.5 (2-site) or 3:1.2 (3-site); HSF2 3-site reservoir 0.1 M HEPES pH 7.5, 25% PEG. The settings on record: protein: recombinant; tags: His6 (N-terminal, between MBP and DBD; MBP removed in vivo by TEV protease); chain copies: 3; 20 bp, 5' overhang 1 nt on both strands.

B1: 14 bp HtH HSE (dsDNA)
DNA 1: GCCGAATATTCGGC
DNA 2: GCCGAATATTCGGC
Turning to B1, the binding result with HSF1-DBD is “binds”.

B2: 24 bp 3-site HSE (dsDNA)
DNA 1: TGTGCGTTCTAGAATATTCGCGAG
DNA 2: ACTCGCGAATATTCTAGAACGCAC
For B2, the binding result with HSF1-DBD trimer [1] is listed as “binds”.

B3: 23 bp 3-site HSE (dsDNA)
DNA 1: TGGCGTTCTAGAATATTCGCGGA
DNA 2: ATCCGCGAATATTCTAGAACGCC
Take B3: the binding result with HSF1-DBD trimer [2] is listed as “binds”.

B4: DNA-binding domain (DBD) of human heat shock factor 1 (HSF1), residues 15-120 (domain or fragment, UniProt Q00613 15-120, looked up)
chain: VPAFLTKLWTLVSDPDTDALICWSPSGNSFHVFDQGQFAKEVLPKYFKHNNMASFVRQLNMYGFRKVVHIEQGGLVKPERDDTEFQHPCFLRGQEQLLENIKRKVT
notes: The His6 tag lies between the TEV site and the DBD; MBP was removed in vivo by co-expressed TEV protease; In the crystals, two or three copies sit on one DNA duplex; also called HSF1-DBD; DBD I; source: E. coli Rosetta2(DE3) carrying pRK603, purified (Ni-NTA, cation exchange, SEC); not shown: MBP, N-terminal, cleaved
Regarding B4, the binding result in data set [3] was “binds”.

B5: 12 bp HtH HSE (dsDNA)
DNA 1: GGGAATATTCCC
DNA 2: GGGAATATTCCC
With B5, in the data set with HSF2-DBD, the binding result is listed as “binds”.

B6: 21 bp 3-site HSE (dsDNA)
DNA 1: TGCGTTCTAGAATATTCGCGG
DNA 2: ACCGCGAATATTCTAGAACGC
On to B6, for which the binding result in the data set with HSF2-DBD trimer was “binds”.

B7: DNA-binding domain (DBD) of human heat shock factor 2 (HSF2), residues 7-112 (domain or fragment, UniProt Q03933 7-112, looked up)
chain: VPAFLSKLWTLVEETHTNEFITWSQNGQSFLVLDEQRFAKEILPKYFKHNNMASFVRQLNMYGFRKVVHIDSGIVKQERDGPVEFQHPYFKQGQDDLLENIKRKVS
notes: The His6 tag lies between the TEV site and the DBD; MBP was removed in vivo by co-expressed TEV protease; In the crystals, two or three copies sit on one DNA duplex; also called HSF2-DBD; DBD I; source: E. coli Rosetta2(DE3) carrying pRK603, purified (Ni-NTA, cation exchange, SEC); not shown: MBP, N-terminal, cleaved
For B7, the binding result in data set [3] is reported as “binds”.
